Measurements taken from patent US20260159561A1 (MyNeuroCure Oy, priority 2017, published 2026).

How the values were obtained:
rat 6-OHDA model of PD = test: Neurorestoration study in 6-OHDA model of PD, amphetamine-induced rotations; format: in vivo; conditions: intrastriatal injection 2 weeks after 6-OHDA lesioning; 2, 4, 6 and 8 weeks post-lesion
Experimental: In neurorestoration model of PD, rats were lesioned with 6-OHDA as described before (Voutilainen et al., 2009; Voutilainen et al., 2011, Penttinen et al., 2016). Briefly, rats received under isoflurane anesthesia unilateral stereotaxic injections of 3×2 μg 6-OHDA (in 10 degree angle) into the left striatum (coordinates relative to bregma and dura A/P+1.6; L/M −2.8; D/V −6, A/P 0.0: L/M −4.1; D/V −5.5 and A/P −1.2; L/M: −4.5; D/V −5.5). Two weeks later, rats were divided to groups based on their amphetamine-induced rotation results (size of the lesion). […] In the reference experiment after division of rats into groups, osmotic minipumps were inserted subcutaneously and cannula was placed into lesioned striatum. The minipump delivered MANF4 (i.e. MANF peptide CKGC, see WO2013034805), GDNF or vehicle solution into striatum for two weeks after which the minipump and cannula were removed. […] The number of amphetamine-induced (2.5 mg/kg, i.p.) full (360°) ipsi- and contralateral turns were recorded for 120 mins after a 30 min habituation period. The results are expressed as net ipsilateral turns to the lesion side Exclusion criterion was Mean (net rotations)±2×STDEV.

SOD1-G93A mice = test: SOD1-G93A mouse ALS model, 4-week chronic intracerebroventricular infusion; format: in vivo; conditions: i.c.v. infusion 1.5 μg/24 h for 4 weeks, vs PBS
Text: Transgenic SOD1 G93A mice served as a transgenic mouse model for ALS in this study. Transgenic mice containing various human SOD1 mutations develop progressive neurodegeneration and motoneuron (MN) death, providing an animal model that has been commonly used for preclinical trials and that has greatly contributed to the understanding of FALS pathogenesis (Gurney et al., 1994). […] In these mice hind limb weakness and tremulous movement appear as initial symptoms at 8-10 week of age, followed by major symptoms such as progressive motor paralysis and neurogenic amyotrophy (Shibata 2001). […] Transgenic expression was analyzed by DNA tail tests and PCR, using specific oligonucleotides and conditions as done previously by others (see homepage Jackson Lab). […]
In the chronic infusion experiment, 12-week-old SOD1 mice were inserted a brain infusion cannula (connected via catheter-tubing to an Alzet osmotic minipump) to the right lateral ventricle under isoflurane anesthesia. […] Motor behavior was evaluated with rotarod. Mice were evaluated for clinical signs and body weight changes.
Clinical scoring for SOD1 mice was done using instructions from Jackson laboratory. […] Animals were scored by lifting them gently by the base of their tails and observing them for tremors, stiffness and their ability to extend their limbs. […]

[1] = test system: ER stressed superior cervical ganglia (SCG) sympathetic neurons; test: Survival of tunicamycin ER-stressed SCG neurons microinjected with expression plasmids; format: cell-based, mouse; conditions: expressed from microinjected plasmids; tunicamycin 2 μM; counted after three days
Experimental: (§1) Non-neuronal cells were removed by extensive preplating. Almost pure neurons were cultured in polyornithine/laminin (Sigma)-coated 35-mm plastic dishes in the small-size standard microislands in the Neurobasal medium and B27 supplement (Invitrogen/Gibco) in the presence of 30 ng/ml mouse nerve growth factor (NGF) (Promega) for 5-6 days. NGF was deprived by extensive washing and addition of the function-blocking anti-NGF antibodies (Roche). The neurons were pressure-microinjected with special neuronal microinjection equipment (Hellman et al., 2011; Hamner et al., 2001; Lindholm et al., 2002; Sun et al., 2001; Yu et al., 2003)(Sun et al., 2001; Sun et al., 2003). For the survival assay, all neurons on the microislands were counted in the beginning (initial number) and the end (three days) of the experiment and expressed as % of initial.
(§2) Microinjection of the sympathetic neurons was performed as described earlier (Yu, L. Y., Jokitalo, E., Sun, Y. F., Mehlen, P., Lindholm, D., Saarma, M., and Arumäe, U. (2003) J. Cell Biol. 163, 987-997). […] Next day tunicamycin (2 μM) was added, and after 3 days the living fluorescent neurons were counted. Living fluorescent (EGFP-expressing or Dextran Texas Red-containing) neurons were “blindly” counted three days later and expressed as percent of initial living fluorescent neurons counted 2-3 hours after microinjection. […]

[2] = rat, in vivo, sc
Experimental: ^125I-CDNF, ^125I C-CDNF or ^125I C-MANF (all proteins at 106 cpm in 10 μl) were injected subcutaneously to adult male Wistar rats. Animals were perfused with PBS 2 hours later. Radioactivity was analyzed in different brain regions by gamma counter. Data are shown as mean±SEM. The differences between groups were analyzed ANOVA followed by Tukey-Kramers post hoc test.

ER stressed SCG neurons = test: Survival of tunicamycin ER-stressed SCG neurons microinjected with recombinant protein; format: cell-based, mouse; conditions: recombinant protein microinjected into the cytoplasm; tunicamycin 2 μM; counted after 3 days
Experimental: as §1, §2

B1: C-CDNF: Human C-CDNF, SEQ ID NO: 4: C-terminal domain of mature CDNF, amino acid 101 to 161; recombinant, Histidine tag at C-terminus (protein, listed as Homo sapiens)
chain: KYEKTLDLASVDLRKMRVAELKQILHSWGEECRACAEKTDYVNLIQELAPKYAATHPKTEL
Rat 6-OHDA model of PD
  cumulative amphetamine-induced rotations: significantly reduces the cumulative amount of amphetamine-induced rotations
SOD1-G93A mice; significant week 13 until week 19
  rotarod performance (motor coordination): improves motor coordination
SOD1-G93A mice; weeks 18 and 19
  relative changes in body weight: Significant differences between treatments in body weight
[1]
  living fluorescent neurons, percentage of initial neurons: rescue ER stressed superior cervical ganglia (SCG) sympathetic neurons
[2]
  blood-brain-barrier penetration (radioactivity in brain): capable of penetrating neuronal cell membrane as well as the blood-brain-barrier
ER stressed SCG neurons
  living fluorescent neurons, percentage of initial neurons: rescue ER stressed SCG neurons
